Data set [1] relates to CC(=O)N[C@H]1[C@H](Oc2ccc3c(C)cc(=O)oc3c2)O[C@H](COS(=O)(=O)O)[C@@H](O)[C@@H]1O. Description: purified protein. The following applies: pH 6.0, 25 °C, 25 mM Bis-tris propane, 25 mM citrate, 300 mM NaCl.
Data set [2] relates to T1, CC(=O)N[C@H]1[C@H](Oc2ccc3c(C)cc(=O)oc3c2)O[C@H](COS(=O)(=O)O)[C@@H](O)[C@@H]1O.
T1 construct: residues 22-546, His6-tagged (pET23-Bt4394(22-546)-6His), expressed in E. coli BL21(DE3)
Description: fluorometric release of 4-methylumbelliferone, Michaelis-Menten fit. The following applies: pH 5.5, 25 °C, 25 mM Bis-tris propane, 25 mM citrate, 300 mM NaCl. In kind it is biochemical, Bacteroides thetaiotaomicron. The source says:
(§1) fluorometric release of 4-methylumbelliferone, Michaelis-Menten fit on Bt4394

The test system of data set [3] is CC(=O)N[C@H]1[C@H](Oc2ccc3c(C)cc(=O)oc3c2)O[C@H](CO)[C@@H](O)[C@@H]1O. Description: purified protein. The following applies: pH 6.0, 25 °C, 25 mM Bis-tris propane, 25 mM citrate, 300 mM NaCl.
Data set [4] has the same test system. Description: fluorometric release of 4-methylumbelliferone, Michaelis-Menten fit. In kind it is biochemical, Prevotella sp. CAG:5226. The following applies: pH 6.0, 25 °C, 25 mM Bis-tris propane, 25 mM citrate, 300 mM NaCl. The source says: (§2) fluorometric release of 4-methylumbelliferone, Michaelis-Menten fit on WG enzyme
Data set [5] concerns CC(=O)N[C@H]1[C@H](Oc2ccc3c(C)cc(=O)oc3c2)O[C@H](COS(=O)(=O)O)[C@@H](O)[C@@H]1O. The data set is described as above. In kind it is biochemical, Prevotella sp. CAG:5226. The following applies: pH 6.0, 25 °C, 25 mM Bis-tris propane, 25 mM citrate, 300 mM NaCl.
Source text: as §2

Substrate in data set [6]: CC(=O)N[C@H]1[C@H](Oc2ccc3c(C)cc(=O)oc3c2)O[C@H](COS(=O)(=O)O)[C@@H](O)[C@@H]1O
Described as above. Type of data set: biochemical, Bacteroides thetaiotaomicron. The following applies: pH 5.5, 25 °C, 25 mM Bis-tris propane, 25 mM citrate, 300 mM NaCl.
Source text: as §1

Substrate in data set [7]: CC(=O)N[C@H]1[C@H](Oc2ccc3c(C)cc(=O)oc3c2)O[C@H](CO)[C@@H](O)[C@@H]1O
The description is as above. In kind it is biochemical, Bacteroides thetaiotaomicron. The conditions noted are these: pH 5.5, 25 °C, 25 mM Bis-tris propane, 25 mM citrate, 300 mM NaCl.
Source text: as §1

Broadly, the Km is the substrate concentration at which the rate is half of its maximum. The kcat is the maximal rate divided by the concentration of active sites. In general, kcat/Km refers to the turnover number divided by the Michaelis constant. As for “WG enzyme (Prevotella sp. CAG:5226; W417A)”, in data set [1], the Km was found to be 17 ± 2 µM, the kcat was found to be 45 ± 1 s⁻¹ and the kcat/Km worked out at 2.6e+06 ± 300000 M⁻¹ s⁻¹.
As to “Bt4394 (Bacteroides thetaiotaomicron VPI-5482; I432G/Q431W)”, in data set [2], the Km is 194 ± 16 µM, the catalytic constant (kcat) was 12 ± 0.3 s⁻¹ and the kcat/Km is 60000 ± 20000 M⁻¹ s⁻¹.
Take “YG enzyme (Alloprevotella sp. oral taxon 473 str. F0040; N445D)”: in data set [1], the Km was found to be 130 ± 14 µM, the kcat was 98 ± 3 s⁻¹ and the kcat/Km stood at 800000 ± 200000 M⁻¹ s⁻¹.
For “WG enzyme (Prevotella sp. CAG:5226; R424A)” the same measures were 47 ± 6 µM, 62 ± 2 s⁻¹ and 1.3e+06 ± 300000 M⁻¹ s⁻¹.
Turning to “YG enzyme (Alloprevotella sp. oral taxon 473 str. F0040)”, in data set [3], the Km is 2209 ± 355 µM, the kcat stood at 11.7 ± 0.7 s⁻¹ and the kcat/Km is 5000 ± 2000 M⁻¹ s⁻¹. In data set [1], the Michaelis-Menten constant (Km) came to 12 ± 1 µM, the kcat amounted to 76 ± 2 s⁻¹ and the kcat/Km was 6e+06 ± 2e+06 M⁻¹ s⁻¹.
As for “WG enzyme (Prevotella sp. CAG:5226; N423D)”, in data set [1], the Km is 56 ± 6 µM, the kcat worked out at 69 ± 4 s⁻¹ and the kcat/Km worked out at 1.2e+06 ± 700000 M⁻¹ s⁻¹.
In the case of “Bt4394 (Bacteroides thetaiotaomicron VPI-5482; I432G/Q431Y)”, in data set [2], the Km came to 546 ± 37 µM, the kcat is 31.6 ± 0.7 s⁻¹ and the kcat/Km came out at 60000 ± 20000 M⁻¹ s⁻¹.
Turning to WG enzyme (Prevotella sp. CAG:5226), in data set [4], the Km came to 2706 ± 344 µM, the kcat was found to be 11.6 ± 0.5 s⁻¹ and the kcat/Km amounted to 4000 ± 2000 M⁻¹ s⁻¹. Besides, in data set [5], the Km amounted to 5.1 ± 0.3 µM, the catalytic constant (kcat) was found to be 39.9 ± 0.6 s⁻¹ and the specificity constant (kcat/Km) was 8e+06 ± 2e+06 M⁻¹ s⁻¹.
With “YG enzyme (Alloprevotella sp. oral taxon 473 str. F0040; R446A)”, in data set [1], the Km came to 90 ± 9 µM, the kcat was found to be 97 ± 3 s⁻¹ and the kcat/Km was determined as 1.1e+06 ± 300000 M⁻¹ s⁻¹.

B1: Bt4394 (Bacteroides thetaiotaomicron VPI-5482) (protein)
chain: QEIALTPQPAHLTVKDGRFEFGNQLKAKVTPYQGDSIRMVFESFKKELQEATGIKVSSTQKEAKARIILDLNPQLPAEAYKLNVSKKQVRIEASRPAGFYYALQTLKQLMPRNVMAGVATSDHSQWSLPSVEIEDAPRFEWRGFMLDEGRHFFGKDEIKRVIDMMAIYKMNRFHWHLTEDQGWRIEIKKYPKLTETGAWRNSKVLAYGDVKPDGERYGGFYTQKDIKEIVAYAKKKFIEIIPEIDIPGHSQAAVAAYPEFLACDPRDKHEVWLQQGISTDVINVANPKAMQFAKEVIDELTELFPFNYIHLGGDECPTRKWQKNDECKKLLSEIGSSNFRDLQIYFYKQLKDYIATKPADQQRQLIFWNEVLHGNTSILGNDITIMAWIGANAAAKQAAKQGMNTILSPQIPYYINRKQSKLPTEPMSQGHGTETVEAVYNYQPLKDVDAALQPYYKGVQANFWTEWVTEPSVLEYLMLPRLAAVAEAGWTPQEKRNYEDFKERIRKDAELYDLKGWNYGKHIMK
notes: residues 22-546, His6-tagged (pET23-Bt4394(22-546)-6His), expressed in E. coli BL21(DE3)
For B1, in data set [6], the Km came to 39 ± 4 µM, the kcat is 25.8 ± 0.7 s⁻¹ and the kcat/Km came to 700000 ± 200000 M⁻¹ s⁻¹. In data set [7], the Km came to 2183 ± 189 µM, the kcat was found to be 2.9 ± 0.1 s⁻¹ and the kcat/Km was determined as 1300 ± 500 M⁻¹ s⁻¹.

Source of the values: PMC11659886, “Bioinformatics-Facilitated Identification of Novel Bacterial Sulfoglycosidases That Hydrolyze 6-Sulfo-N-acetylglucosamine” (ACS Bio & Med Chem Au, 2024).
